Here are results for two substances from paper PMC11281603.

The test addresses polymeric Ig receptor (pIgR) fused to the FLAG tag (UniProt P01833). In words: flow cytometry on cells. For orientation: A flow cytometer gives signals particle by particle.
UniProt P01833, sequence (P01833 19-764): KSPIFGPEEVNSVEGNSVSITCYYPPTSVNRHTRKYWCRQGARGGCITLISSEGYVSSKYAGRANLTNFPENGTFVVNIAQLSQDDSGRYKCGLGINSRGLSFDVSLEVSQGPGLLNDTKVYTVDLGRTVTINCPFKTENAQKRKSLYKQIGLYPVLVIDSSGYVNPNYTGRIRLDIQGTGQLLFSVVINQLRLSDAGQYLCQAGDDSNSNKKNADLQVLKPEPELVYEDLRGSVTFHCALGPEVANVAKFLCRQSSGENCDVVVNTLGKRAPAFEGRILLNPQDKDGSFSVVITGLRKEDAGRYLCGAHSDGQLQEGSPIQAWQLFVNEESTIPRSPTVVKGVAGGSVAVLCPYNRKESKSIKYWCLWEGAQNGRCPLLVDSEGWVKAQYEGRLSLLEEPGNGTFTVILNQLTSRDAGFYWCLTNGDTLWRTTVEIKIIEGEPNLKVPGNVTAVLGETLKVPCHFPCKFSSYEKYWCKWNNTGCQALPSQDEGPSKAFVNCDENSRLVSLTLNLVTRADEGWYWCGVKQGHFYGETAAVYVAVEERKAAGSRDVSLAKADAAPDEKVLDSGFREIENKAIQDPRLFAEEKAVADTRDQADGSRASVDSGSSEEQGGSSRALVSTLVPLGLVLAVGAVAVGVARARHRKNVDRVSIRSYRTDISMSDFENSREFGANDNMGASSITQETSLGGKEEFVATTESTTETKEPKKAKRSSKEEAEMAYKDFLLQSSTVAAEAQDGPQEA

IgM from human serum (ligand): the mean percent binding to pIgR-expressing cells, ORF8-expressing cells was determined as 25.1% and the mean percent binding to pIgR-expressing cells, control cells turned out to be 33.9%.
The substance “IgA from human colostrum (from UniProt P01591 23-159) (ligand)” came in with a mean percent binding to pIgR-expressing cells, ORF8-expressing cells of 36.9%; a mean percent binding to pIgR-expressing cells, control cells of 59.6%; a percent ORF8 binding left with 10 ug/mL IgA of 18%.
